# Values of other authors in article PMC7763558.
# What was measured:
# Test in all cases: SPR
# [1] = biological target: BPTI (native client) (Bos taurus) (UniProt P00974)
# [2] = biological target: BPTI (partially folded client) (Bos taurus) (UniProt P00974)
# [3] = biological target: BPTI (unfolded client) (Bos taurus) (UniProt P00974)
substance,measurement,setting,value
PDI (from UniProt P07237),Kd,[1],394 µM
same,Kd,[2],14 µM
same,Kd,[3],3 µM
